Experimental findings from PMC4609117 are described below.

For data set [1], the target named is T1, Ms0535 (GntR family, FadR/VanR-like regulator) (Mycobacterium smegmatis mc2 155, UniProt A0QPV8 1-212). The data set can be described thus: EMSA; 0-4 uM protein. Particulars: protein: recombinant; tags: His-tag (pET28a); chain copies: 2; blunt.
The target of data set [2] is T1, Ms0535 (GntR family, FadR/VanR-like …). The data set can be described thus: EMSA; 0-4 uM protein; only one shifted band. Particulars: protein: recombinant; tags: His-tag (pET28a); chain copies: 2; blunt.

B1: Ms0535p7 (both IRs mutated) (dsDNA)
DNA 1: CACACCGTTCCATGCATGTTCTCATGCATGGAACGCGCTA
DNA 2: TAGCGCGTTCCATGCATGAGAACATGCATGGAACGGTGTG
B1: the binding result in data set [1] was “no binding”.

B2: Ms0535p2 (one IR mutated) (dsDNA)
DNA 1: CACACCGCCTTGCATGCATTCTCATGCATGGCCCGCGCTA
DNA 2: TAGCGCGGGCCATGCATGAGAATGCATGCAAGGCGGTGTG
For the molecule B2, the binding result in data set [2] is recorded as “binds”.

B3: Ms0535p0 (dsDNA)
DNA 1: CACACCGCCTTGCATGCATTCTTGCATGCAAGGCGCGCTA
DNA 2: TAGCGCGCCTTGCATGCAAGAATGCATGCAAGGCGGTGTG
Turning to B3, the binding result in data set [1] is on record as “binds”.

B4: Ms0535p1 (one IR mutated) (dsDNA)
DNA 1: CACACCGTTCCATGCATGTTCTTGCATGCAAGGCGCGCTA
DNA 2: TAGCGCGCCTTGCATGCAAGAACATGCATGGAACGGTGTG
Turning to B4, in data set [2], the binding result is reported as “binds”.
